Test results: PMC10397247

Columns and labels:
4H591-bN = molecular target: T1, 4H591-bN; experiment: two-hybrid library CCNG1;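 further: natural log of median RNA to DNA barcode read ratio; higher means stronger binding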
T1 chain: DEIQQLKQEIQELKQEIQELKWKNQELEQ

4H626-bN = molecular target: T2, 4H626-bN; experiment: two-hybrid library CCNG1;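 further: natural log of median RNA to DNA barcode read ratio; higher means stronger binding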
T2 chain: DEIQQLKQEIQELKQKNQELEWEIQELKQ

4H906-bN = molecular target: T3, 4H906-bN; experiment: two-hybrid library CCNG1;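 further: natural log of median RNA to DNA barcode read ratio; higher means stronger binding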
T3 chain: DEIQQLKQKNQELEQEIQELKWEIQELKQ

4H675-AA = molecular target: T4, 4H675-AA; experiment: two-hybrid library CCmax; settings: mean of both orientations;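 further: natural log of median RNA to DNA barcode read ratio; higher means stronger binding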
T4 chain: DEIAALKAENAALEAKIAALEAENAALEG

4H3446-AA = molecular target: T5, 4H3446-AA; experiment: two-hybrid library CCmax; settings: mean of both orientations
T5 chain: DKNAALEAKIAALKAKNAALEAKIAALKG

4H3029-AA = molecular target: T6, 4H3029-AA; experiment: two-hybrid library CCmax
T6 chain: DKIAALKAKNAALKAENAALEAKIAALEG

4H391-AA = molecular target: T7, 4H391-AA; experiment: two-hybrid library CCmax; settings: mean of both orientations
T7 chain: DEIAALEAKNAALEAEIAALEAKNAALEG

4H3666-AA = molecular target: T8, 4H3666-AA; experiment: two-hybrid library CCmax; settings: mean of both orientations
T8 chain: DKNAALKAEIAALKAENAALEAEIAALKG

4H3939-AA = molecular target: T9, 4H3939-AA; experiment: two-hybrid library CCmax; settings: mean of both orientations
T9 chain: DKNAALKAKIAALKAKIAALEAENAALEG

4H3709-AA = molecular target: T10, 4H3709-AA; experiment: two-hybrid library CCmax; settings: mean of both orientations
T10 chain: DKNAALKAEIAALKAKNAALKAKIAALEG

4H497-AA = molecular target: T11, 4H497-AA; experiment: two-hybrid library CCmax; settings: mean of both orientations
T11 chain: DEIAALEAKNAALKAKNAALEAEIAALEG

4H3066-AA = molecular target: T12, 4H3066-AA; experiment: two-hybrid library CCmax; settings: mean of both orientations
T12 chain: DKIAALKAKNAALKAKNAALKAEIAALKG

4H971-AA = molecular target: T13, 4H971-AA; experiment: two-hybrid library CCmax; settings: mean of both orientations
T13 chain: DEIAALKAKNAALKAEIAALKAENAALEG

4H3121-AA = molecular target: T14, 4H3121-AA; experiment: two-hybrid library CCmax; settings: mean of both orientations
T14 chain: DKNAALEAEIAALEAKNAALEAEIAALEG

4H3591-AA = molecular target: T15, 4H3591-AA; experiment: two-hybrid library CCmax; settings: mean of both orientations
T15 chain: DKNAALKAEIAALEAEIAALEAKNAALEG

4H3417-AA = molecular target: T16, 4H3417-AA; experiment: two-hybrid library CCmax; settings: mean of both orientations
T16 chain: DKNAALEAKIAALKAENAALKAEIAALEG

4H478-AA = molecular target: T17, 4H478-AA; experiment: two-hybrid library CCmax; settings: mean of both orientations
T17 chain: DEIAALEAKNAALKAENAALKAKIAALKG

4H3628-AA = molecular target: T18, 4H3628-AA; experiment: two-hybrid library CCmax; settings: mean of both orientations
T18 chain: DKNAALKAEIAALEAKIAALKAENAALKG

4H3102-AA = molecular target: T19, 4H3102-AA; experiment: two-hybrid library CCmax; settings: mean of both orientations
T19 chain: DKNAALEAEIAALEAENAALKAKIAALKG

4H428-AA = molecular target: T20, 4H428-AA; experiment: two-hybrid library CCmax; settings: mean of both orientations
T20 chain: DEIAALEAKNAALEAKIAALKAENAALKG

4H3920-AA = molecular target: T21, 4H3920-AA; experiment: two-hybrid library CCmax; settings: mean of both orientations
T21 chain: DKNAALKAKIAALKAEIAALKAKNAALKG

4H656-AA = molecular target: T22, 4H656-AA; experiment: two-hybrid library CCmax; settings: mean of both orientations
T22 chain: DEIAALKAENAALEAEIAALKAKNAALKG

4H895-AA = molecular target: T23, 4H895-AA; experiment: two-hybrid library CCmax; settings: mean of both orientations
T23 chain: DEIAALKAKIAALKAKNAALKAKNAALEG

4H_GCN4 = experiment: two-hybrid library CCmax
4H_BCR = molecular target: T24, 4H_BCR; experiment: two-hybrid library CCmax; settings: mean of both orientations
T24 chain: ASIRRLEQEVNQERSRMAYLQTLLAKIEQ

GCN2_T = experiment: two-hybrid library CCmax
4H_APH = molecular target: T25, 4H_APH; experiment: two-hybrid library CCmax
T25 chain: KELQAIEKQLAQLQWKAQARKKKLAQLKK

4H535-AA = molecular target: T26, 4H535-AA; experiment: two-hybrid library CCmax
T26 chain: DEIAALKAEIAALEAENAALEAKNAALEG

4H58-AA = molecular target: T27, 4H58-AA; experiment: two-hybrid library CCmax; settings: mean of both orientations
T27 chain: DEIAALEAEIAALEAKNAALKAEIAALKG

4H683-bA = molecular target: T28, 4H683-bA; experiment: two-hybrid library CCNG1
T28 chain: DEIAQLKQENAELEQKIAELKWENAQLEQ

4H797-bA = molecular target: T29, 4H797-bA; experiment: two-hybrid library CCNG1
T29 chain: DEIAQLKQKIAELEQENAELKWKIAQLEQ

4H918-bA = molecular target: T30, 4H918-bA; experiment: two-hybrid library CCNG1
T30 chain: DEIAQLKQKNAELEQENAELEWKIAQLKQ

4H953-bA = molecular target: T31, 4H953-bA; experiment: two-hybrid library CCNG1
T31 chain: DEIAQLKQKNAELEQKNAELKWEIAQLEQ

4H780-bA = molecular target: T32, 4H780-bA; experiment: two-hybrid library CCNG1
T32 chain: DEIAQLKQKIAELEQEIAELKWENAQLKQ

4H754-bA = molecular target: T33, 4H754-bA; experiment: two-hybrid library CCNG1
T33 chain: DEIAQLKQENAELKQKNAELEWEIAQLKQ

4H968-bA = molecular target: T34, 4H968-bA; experiment: two-hybrid library CCNG1
T34 chain: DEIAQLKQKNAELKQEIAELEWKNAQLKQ

4H855-bA = molecular target: T35, 4H855-bA; experiment: two-hybrid library CCNG1
T35 chain: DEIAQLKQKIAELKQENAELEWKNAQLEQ

O8-bA = molecular target: T36, O8-bA; experiment: two-hybrid library CCNG1
T36 chain: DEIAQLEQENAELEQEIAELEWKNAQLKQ

4H_GCN4, sequence (chain, as listed by the source): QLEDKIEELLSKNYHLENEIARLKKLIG

In the case of DEIQQLKQEIQELKQEIQELKWKNQELEQ [4H591-bN], the interaction score (4H591-bN) is reported as 1.27, the interaction score (4H626-bN) is reported as -0.933 and the interaction score (4H906-bN) is reported as -1.13.

DEIQQLKQEIQELKQKNQELEWEIQELKQ [4H626-bN] gave an interaction score (4H626-bN) of 0.832 and an interaction score (4H906-bN) of -0.523.

DKIAALKAKNAALKAENAALEAKIAALEG [4H3029-AA] gave an interaction score (4H675-AA) of -1.45, an interaction score (4H3446-AA) of -1.79 and an interaction score (4H3029-AA) of -0.965. The interaction score (4H391-AA) was -1.42, the interaction score (4H3666-AA) was -1.86 and the interaction score (4H3939-AA) was -1.98. For the same binder, the interaction score (4H3709-AA) was -1.34, the interaction score (4H497-AA) was -0.722 and the interaction score (4H3066-AA) was -1.01. For the same binder, the interaction score (4H971-AA) was -2.45, the interaction score (4H3121-AA) was -1.89 and the interaction score (4H3591-AA) was -1.37. It also gave an interaction score (4H3417-AA) of -1.74, an interaction score (4H478-AA) of 1.48 and an interaction score (4H3628-AA) of -1.87. The interaction score (4H3102-AA) was 0.23, the interaction score (4H428-AA) was -1.74 and the interaction score (4H3920-AA) was -1.69. The interaction score (4H656-AA) was -1.3.

DEIAALKAEIAALEAENAALEAKNAALEG [4H535-AA] was tested, and the interaction score (4H895-AA) was 2.1, the interaction score (4H_GCN4) was -1.41 and the interaction score (4H_BCR) was -1.23. For the same binder, the interaction score (GCN2_T) was -2.47, the interaction score (4H_APH) was -1.48 and the interaction score (4H535-AA) was -0.291. For the same binder, the interaction score (4H58-AA) was -0.661.

For DEIAQLKQENAELEQKIAELKWENAQLEQ [4H683-bA], the interaction score (4H683-bA) was -0.189, the interaction score (4H797-bA) was -1.06 and the interaction score (4H918-bA) was -0.784. It also gave an interaction score (4H953-bA) of -1.67, an interaction score (4H780-bA) of -1.43 and an interaction score (4H754-bA) of -0.665. The interaction score (4H968-bA) was 2.25, the interaction score (4H855-bA) was -0.474 and the interaction score (O8-bA) was -2.64.
